The target of assay [1] is unidentified antigen on CHO PD-L1 cells bound by pertuzumab (the filing speculates hamster HER2). Put plainly: flow cytometry, CHO PD-L1 cells (residual binding).
Assay [2] shares this target. Put plainly: flow cytometry, CHO PD-L1 cells; reference pertuzumab. Background: A flow cytometer gives signals particle by particle.

As usually defined, the EC50 is the midpoint of the concentration-response curve. Lower therefore signals higher potency in that assay. pertuzumab (antibody) returned a half-maximal effective concentration (EC50) in assay [1] of 1.29 nM. Moreover, the rel. EC50 (EC50 reference/EC50 sample) in assay [2] is 1.

For the origin of these results see patent US20220411536A1.
